Experiment [1] deals with T1, Monomeric Trop-2 extracellular domain prepared from papain digestion of Trop-2-Fc fusion protein (human, UniProt P09758 27-274).
T1 construct: also called huTrop-2
T1 sequence: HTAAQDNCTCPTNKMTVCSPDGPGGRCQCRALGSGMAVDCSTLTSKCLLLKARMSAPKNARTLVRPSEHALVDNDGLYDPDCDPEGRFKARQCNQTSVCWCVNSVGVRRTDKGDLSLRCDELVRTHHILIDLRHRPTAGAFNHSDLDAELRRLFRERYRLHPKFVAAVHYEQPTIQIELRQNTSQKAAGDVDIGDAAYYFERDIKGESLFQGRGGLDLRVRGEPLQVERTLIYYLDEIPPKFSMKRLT
Description: SPR (Biacore), mouse IgG captured by anti-mouse IgG, monomeric Trop-2 ECD as analyte.
Description: The affinities of anti-Trop-2 mouse antibodies generated from hybridomas were measured on a surface plasmon resonance Biacore™ 2000 or 3000 biosensor equipped with a research-grade CM5 sensor chip (Biacore™ AB, Uppsala, Sweden—now GE Healthcare). Anti-mouse IgG was first amine coupled to the CM5 sensor surface. Various anti-Trop-2 mouse IgGs were then captured by anti-mouse IgG. Monomeric Trop-2 extracellular domain prepared from papain digestion of Trop-2-Fc fusion protein was then injected as the analyte at 3 fold dilution series.

The target in experiment [2] is T2, Trop-2 on Trop-2 expressing tumor cells (human, UniProt P09758 27-323).
T2 construct: Endogenous Trop-2 of human tumour cell lines; also called Trop-2 positive tumor cells; A431 (Trop-2+++)
T2 sequence: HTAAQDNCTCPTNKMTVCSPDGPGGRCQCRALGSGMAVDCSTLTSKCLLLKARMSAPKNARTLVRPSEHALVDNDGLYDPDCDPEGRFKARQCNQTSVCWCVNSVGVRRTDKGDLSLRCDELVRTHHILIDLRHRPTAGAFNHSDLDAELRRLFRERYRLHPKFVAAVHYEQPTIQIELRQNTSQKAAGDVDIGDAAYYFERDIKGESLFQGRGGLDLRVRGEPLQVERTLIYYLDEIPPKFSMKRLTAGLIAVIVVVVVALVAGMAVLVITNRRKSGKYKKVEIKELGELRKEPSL
Description: flow cytometry, Colo205 cells (Trop-2+), 1 ug antibody per 300,000 cells. A general note: A flow cytometer gives signals particle by particle.

Experiment [3] deals with T2, Trop-2 on Trop-2 expressing tumor cells. As to the kind of experiment: flow cytometry, A431 cells (Trop-2+++), 1 ug antibody per 300,000 cells.
The target of experiment [4] is T3, Human Trop-2-mFc protein (human, UniProt P09758 27-274).
T3 construct: also called huTrop-2; not shown: mouse Fc
T3 sequence: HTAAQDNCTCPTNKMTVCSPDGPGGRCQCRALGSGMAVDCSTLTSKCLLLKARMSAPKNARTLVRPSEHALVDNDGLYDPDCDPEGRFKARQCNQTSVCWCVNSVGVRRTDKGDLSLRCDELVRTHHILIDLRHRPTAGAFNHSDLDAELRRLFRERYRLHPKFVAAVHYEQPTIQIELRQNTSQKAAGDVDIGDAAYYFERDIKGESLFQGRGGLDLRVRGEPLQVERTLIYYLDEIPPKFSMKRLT
Description: SPR (Biacore 2000), human Trop-2-mFc captured by anti-mouse Fc, Fab as analyte. Background: Surface plasmon resonance follows binding to a sensor surface in real time, without labels.

The target in experiment [5] is T2, Trop-2 on Trop-2 expressing tumor cells. As to the kind of experiment: flow cytometry, Colo205 cells (Trop-2+), 1 ug antibody per 300,000 cells. This is another data set of the same source.
Experiment [6] has the same target. As to the kind of experiment: flow cytometry, A431 cells (Trop-2+++), 0.5 ug antibody per 200,000 cells.
Description: For A431 cell staining, 200,000 cells were incubated with 0.5 ug antibody in 100 uL binding buffer (PBS (Phosphate Buffered Saline)+0.5% BSA (Bovine Serum Albumin)), followed by incubation with Dylight488-conjugated goat anti-human (Fab′)-2-specific secondary antibody from Jackson immunoresearch Laboratories (West Grove, Pa.).

B1: anti-Trop-2 mouse antibody 6G11 (antibody, mouse IgG2a, V domains shown)
VH: QVQLQQPGAELVRPGASVKLSCKASGYTFTSYWINWVKQRPGHGLEWIGNIYPSDSYSNYNQKFKDKATLTVDKSSSTAYMQVSSPTSEDSAVYYCTYGSSFDYWGQGTTVTVSS
VL: DILLTQSPAILSVSPGERVSFSCRASQTIGTSIHWYQQRTNGSPRLLIKYASESISGIPSRFSGSGSGTDFTLSINSVESEDIADYYCQQSNSWPFTFGSGTKLEIK
notes: also called m6G11
Regarding B1, in experiment [1], the Kd was 31.8 nM, the koff amounted to 0.0086 s⁻¹ and the kon came out at 270000 M⁻¹ s⁻¹.

B2: chimeric mouse anti-Trop-2 6G11 antibody (human IgG1) (antibody, V domains shown)
VH: QVQLQQPGAELVRPGASVKLSCKASGYTFTSYWINWVKQRPGHGLEWIGNIYPSDSYSNYNQKFKDKATLTVDKSSSTAYMQVSSPTSEDSAVYYCTYGSSFDYWGQGTTVTVSS
VL: DILLTQSPAILSVSPGERVSFSCRASQTIGTSIHWYQQRTNGSPRLLIKYASESISGIPSRFSGSGSGTDFTLSINSVESEDIADYYCQQSNSWPFTFGSGTKLEIK
notes: Expressed in the human IgG1 subtype; also called mouse 6G11
In the case of B2, in experiment [2], the “% positive” value amounted to 100% and the MFI turned out to be 1670. In addition, in experiment [3], the “% positive” value is 99.9% and the MFI was determined as 16200.

B3: h6G11_WT antibody (human IgG1) (antibody, V domains shown)
VH: QVQLVQSGAEVKKPGASVKVSCKASGYTFTSYWINWVRQAPGQGLEWMGNIYPSDSYSNYNQKFKDRVTMTRDTSTSTVYMELSSLRSEDTAVYYCARGSSFDYWGQGTLVTVSS
VL: EIVLTQSPATLSLSPGERATLSCRASQTIGTSIHWYQQKPGQAPRLLIYYASESISGIPARFSGSGSGTDFTLTISSLEPEDFAVYYCQQSNSWPFTFGQGTKLEIK
notes: Human IgG1
B3: in experiment [2], the “% positive” value was 99% and the MFI is 1720. In addition, in experiment [3], the “% positive” value amounted to 99.9% and the MFI was 19600.

B4: Human 6G11 WT Fab fragment (Fab, V domains shown)
VH: QVQLVQSGAEVKKPGASVKVSCKASGYTFTSYWINWVRQAPGQGLEWMGNIYPSDSYSNYNQKFKDRVTMTRDTSTSTVYMELSSLRSEDTAVYYCARGSSFDYWGQGTLVTVSS
VL: EIVLTQSPATLSLSPGERATLSCRASQTIGTSIHWYQQKPGQAPRLLIYYASESISGIPARFSGSGSGTDFTLTISSLEPEDFAVYYCQQSNSWPFTFGQGTKLEIK
notes: Fab; also called h6G11_WT; h6G11
In the case of B4, in experiment [4], binding was put at a Kd of 27 nM, the koff was found to be 0.0096 s⁻¹ and the kon was determined as 360000 M⁻¹ s⁻¹.

B5: h6G11_FKG_SF antibody (human IgG1) (antibody, V domains shown)
VH: QVQLVQSGAEVKKPGASVKVSCKASGYTFTSYWINWVRQAPGQGLEWMGNIFPSDSYSNYNKKFKDRVTMTRDTSTSTVYMELSSLRSEDTAVYYCARGSGFDYWGQGTLVTVSS
VL: EIVLTQSPATLSLSPGERATLSCRASQTIGTSIHWYQQKPGQAPRLLIYYASESISGIPARFSGSGSGTDFTLTISSLEPEDFAVYYCSQSFSWPFTFGQGTKLEIK
Take B5: in experiment [2], the “% positive” value amounted to 100% and the MFI came to 2060. In experiment [3], the “% positive” value was 99.9% and the MFI was 20300.

B6: Human 6G11_FKG_SF Fab fragment (Fab, V domains shown)
VH: QVQLVQSGAEVKKPGASVKVSCKASGYTFTSYWINWVRQAPGQGLEWMGNIFPSDSYSNYNKKFKDRVTMTRDTSTSTVYMELSSLRSEDTAVYYCARGSGFDYWGQGTLVTVSS
VL: EIVLTQSPATLSLSPGERATLSCRASQTIGTSIHWYQQKPGQAPRLLIYYASESISGIPARFSGSGSGTDFTLTISSLEPEDFAVYYCSQSFSWPFTFGQGTKLEIK
notes: Fab
In experiment [4], B6 registered a Kd of 0.6 nM, a koff of 0.00038 s⁻¹ and a kon of 640000 M⁻¹ s⁻¹.

B7: h7E6_WT antibody (human IgG1) (antibody, V domains shown)
VH: QVQLQESGPGLVKPSETLSLTCTVSGGSISSYGVHWIRQPPGKGLEWIGVIWTGGSTDYNSALMSRVTISVDTSKNQFSLKLSSVTAADTAVYYCARDGDYDRYTMDYWGQGTLVTVSS
VL: DIVMTQSPDSLAVSLGERATINCRASKSVSTSGYSYMHWYQQKPGQPPKLLIYLASNLESGVPDRFSGSGSGTDFTLTISSLQAEDVAVYYCQHSRELPYTFGQGTKLEIK
notes: Human IgG1
For B7, the “% positive” value is 99% in experiment [5] and 94.8% in experiment [6]. Also, the MFI was determined as 1760 in experiment [5] and 102000 in experiment [6].

B8: h7E6_SVG antibody (human IgG1) (antibody, V domains shown)
VH: QVQLQESGPGLVKPSETLSLTCTVSGGSISSYGVHWIRQPPGKGLEWIGVIWTSGVTDYNSALMGRVTISVDTSKNQFSLKLSSVTAADTAVYYCARDGDYDRYTMDYWGQGTLVTVSS
VL: DIVMTQSPDSLAVSLGERATINCRASKSVSTSGYSYMHWYQQKPGQPPKLLIYLASNLESGVPDRFSGSGSGTDFTLTISSLQAEDVAVYYCQHSRELPYTFGQGTKLEIK
For B8, in experiment [5], the “% positive” value was 100% and the MFI was determined as 2420. Moreover, in experiment [6], the “% positive” value was found to be 96.7% and the MFI was 121000.

B9: h7E6_SVGN antibody (human IgG1) (antibody, V domains shown)
VH: QVQLQESGPGLVKPSETLSLTCTVSGGSISSYGVHWIRQPPGKGLEWIGVIWTSGVTDYNSALMGRVTISVDTSKNQFSLKLSSVTAADTAVYYCARDGDYDRYTMDYWGQGTLVTVSS
VL: DIVMTQSPDSLAVSLGERATINCRASKSVSTSNYSYMHWYQQKPGQPPKLLIYLASNLESGVPDRFSGSGSGTDFTLTISSLQAEDVAVYYCQHSRELPYTFGQGTKLEIK
notes: Human IgG1
With B9, the entries for the “% positive” value in experiment [5] and in experiment [6] were 100% and 98.1%, respectively. In addition, the MFI in experiment [5] was determined as 2730; in experiment [6], 128000.

B10: h7E6_SVGL antibody (human IgG1) (antibody, V domains shown)
VH: QVQLQESGPGLVKPSETLSLTCTVSGGSISSYGVHWIRQPPGKGLEWIGVIWTSGVTDYNSALMGRVTISVDTSKNQFSLKLSSVTAADTAVYYCARDGDYDRYTMDYWGQGTLVTVSS
VL: DIVMTQSPDSLAVSLGERATINCRASKSVSTSLYSYMHWYQQKPGQPPKLLIYLASNLESGVPDRFSGSGSGTDFTLTISSLQAEDVAVYYCQHSRELPYTFGQGTKLEIK
notes: Human IgG1
Regarding B10, in experiment [5], the “% positive” value was found to be 100% and the MFI was 2420. For the same molecule, in experiment [6], the “% positive” value was determined as 93.1% and the MFI was found to be 107000.

B11: h7E6_L antibody (human IgG1) (antibody, V domains shown)
VH: QVQLQESGPGLVKPSETLSLTCTVSGGSISSYGVHWIRQPPGKGLEWIGVIWTGGSTDYNSALMSRVTISVDTSKNQFSLKLSSVTAADTAVYYCARDGDYDRYTMDYWGQGTLVTVSS
VL: DIVMTQSPDSLAVSLGERATINCRASKSVSTSLYSYMHWYQQKPGQPPKLLIYLASNLESGVPDRFSGSGSGTDFTLTISSLQAEDVAVYYCQHSRELPYTFGQGTKLEIK
notes: Human IgG1
Regarding B11, in experiment [5], the “% positive” value came to 100% and the MFI amounted to 2470. Besides, in experiment [6], the “% positive” value amounted to 95.1% and the MFI came out at 110000.

B12: h7E6_N antibody (human IgG1) (antibody, V domains shown)
VH: QVQLQESGPGLVKPSETLSLTCTVSGGSISSYGVHWIRQPPGKGLEWIGVIWTGGSTDYNSALMSRVTISVDTSKNQFSLKLSSVTAADTAVYYCARDGDYDRYTMDYWGQGTLVTVSS
VL: DIVMTQSPDSLAVSLGERATINCRASKSVSTSNYSYMHWYQQKPGQPPKLLIYLASNLESGVPDRFSGSGSGTDFTLTISSLQAEDVAVYYCQHSRELPYTFGQGTKLEIK
notes: Human IgG1
For the molecule B12, in experiment [5], the “% positive” value is 100% and the MFI was determined as 2700. For the same molecule, in experiment [6], the “% positive” value worked out at 98.6% and the MFI was determined as 149000.

The term Kd denotes the free concentration of one partner at which half of the binding sites on the other are occupied at equilibrium, for simple one-to-one binding. A high value points to a looser complex. By koff is commonly meant the first-order rate constant of dissociation. Broadly, the kon is the rate constant with which the complex forms. High values mean faster complex formation, low ones slower complex formation.

For the origin of these results see patent US20140357844A1 (RINAT NEUROSCIENCE, published 2014).
